Laboratory results from publication PMC9482650, “Quantitative fragmentomics allow affinity mapping of interactomes” (Nature Communications, 2022).

T1: DLG3_1, Q92796
T1 sequence (Q92796 125-227, limits assumed, looked up): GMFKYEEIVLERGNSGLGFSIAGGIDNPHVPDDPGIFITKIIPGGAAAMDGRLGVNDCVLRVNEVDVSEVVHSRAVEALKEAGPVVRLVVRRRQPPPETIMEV

T2: DLG3_2, Q92796
T2 sequence (Q92796 221-321, limits assumed, looked up): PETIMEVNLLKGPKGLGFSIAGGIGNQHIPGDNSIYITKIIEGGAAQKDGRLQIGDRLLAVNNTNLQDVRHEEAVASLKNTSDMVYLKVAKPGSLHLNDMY

T3: FRMPD1, Q5SYB0
T3 sequence (Q5SYB0 52-145, limits assumed, looked up): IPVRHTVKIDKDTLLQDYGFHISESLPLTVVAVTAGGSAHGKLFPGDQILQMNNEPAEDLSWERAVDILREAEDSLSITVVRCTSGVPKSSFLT

T4: GRIP1_5, Q9Y3R0
T4 sequence (Q9Y3R0 568-668, limits assumed, looked up): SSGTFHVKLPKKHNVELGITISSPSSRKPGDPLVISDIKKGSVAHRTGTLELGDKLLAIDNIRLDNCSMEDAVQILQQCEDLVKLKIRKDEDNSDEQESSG

T5: LNX2_2, Q8N448
T5 sequence (Q8N448 334-432, limits assumed, looked up): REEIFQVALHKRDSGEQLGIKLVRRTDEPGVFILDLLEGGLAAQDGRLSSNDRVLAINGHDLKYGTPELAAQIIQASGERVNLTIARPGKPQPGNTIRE

T6: MPDZ_12, O75970
T6 sequence (O75970 1857-1958, limits assumed, looked up): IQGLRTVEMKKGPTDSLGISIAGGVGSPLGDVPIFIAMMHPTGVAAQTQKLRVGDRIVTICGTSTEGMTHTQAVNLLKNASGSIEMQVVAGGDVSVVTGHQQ

T7: PARD3B_1, Q8TEW8
T7 sequence (Q8TEW8 196-299, limits assumed, looked up): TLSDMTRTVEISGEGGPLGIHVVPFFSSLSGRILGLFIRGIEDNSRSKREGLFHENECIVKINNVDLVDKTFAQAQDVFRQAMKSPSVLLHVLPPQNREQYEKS

T8: RAPGEF6, Q8TEU7
T8 sequence (Q8TEU7 525-625, limits assumed, looked up): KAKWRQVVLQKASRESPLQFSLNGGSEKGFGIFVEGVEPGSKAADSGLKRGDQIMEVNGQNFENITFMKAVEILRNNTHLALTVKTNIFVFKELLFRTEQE

T9: SNTB1, Q13884
T9 sequence (Q13884 107-205, limits assumed, looked up): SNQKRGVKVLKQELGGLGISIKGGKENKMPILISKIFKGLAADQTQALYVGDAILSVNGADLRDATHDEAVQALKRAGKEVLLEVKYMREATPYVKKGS

T10: TX1BP3, O14907
T10 sequence (O14907 10-122, limits assumed, looked up): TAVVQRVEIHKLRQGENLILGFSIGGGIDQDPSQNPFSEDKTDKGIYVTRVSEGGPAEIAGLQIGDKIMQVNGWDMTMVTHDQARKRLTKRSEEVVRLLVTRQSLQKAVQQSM


Key:
Assay in all cases: holdup assay
Parameters in all cases: key: below the threshold = too weak to quantify, mostly under pKd 3.1 to 4
Settings in all cases: plain residues with an end cap or a label only (N-terminal biotin on a linker: ado-ado)
DLG3_1, Q92796 = target: T1, DLG3_1, Q92796
DLG3_2, Q92796 = target: T2, DLG3_2, Q92796
DLG4_1, P78352 = target: DLG4_1, P78352
FRMPD1, Q5SYB0 = target: T3, FRMPD1, Q5SYB0
FRMPD2_1, Q68DX3 = target: FRMPD2_1, Q68DX3
FRMPD2_2, Q68DX3 = target: FRMPD2_2, Q68DX3
GOPC, Q9HD26 = target: GOPC, Q9HD26
GORASP2, Q9H8Y8 = target: GORASP2, Q9H8Y8
GRIP1_5, Q9Y3R0 = target: T4, GRIP1_5, Q9Y3R0
HTRA2, O43464 = target: HTRA2, O43464
Inadl_3, Q8NI35 = target: Inadl_3, Q8NI35
Inadl_6, Q8NI35 = target: Inadl_6, Q8NI35
Inadl_8, Q8NI35 = target: Inadl_8, Q8NI35
LNX2_2, Q8N448 = target: T5, LNX2_2, Q8N448
MAGI2_4, Q86UL8 = target: MAGI2_4, Q86UL8
MAGI2_5, Q86UL8 = target: MAGI2_5, Q86UL8
MAST1, Q9Y2H9 = target: MAST1, Q9Y2H9
MAST2, Q6P0Q8 = target: MAST2, Q6P0Q8
MPDZ_12, O75970 = target: T6, MPDZ_12, O75970
PARD3B_1, Q8TEW8 = target: T7, PARD3B_1, Q8TEW8
PICK1, Q9NRD5 = target: PICK1, Q9NRD5
PTPN3, P26045 = target: PTPN3, P26045
RAPGEF6, Q8TEU7 = target: T8, RAPGEF6, Q8TEU7
SCRIB_3, Q14160 = target: SCRIB_3, Q14160
SNTB1, Q13884 = target: T9, SNTB1, Q13884
TJP2_1, Q9UDY2 = target: TJP2_1, Q9UDY2
TX1BP3, O14907 = target: T10, TX1BP3, O14907

FRMPD2_2, Q68DX3, sequence (Q68DX3 944-1038): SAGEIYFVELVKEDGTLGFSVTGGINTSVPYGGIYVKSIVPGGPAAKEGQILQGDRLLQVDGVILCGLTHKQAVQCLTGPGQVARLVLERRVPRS
DLG4_1, P78352, sequence (P78352 62-152): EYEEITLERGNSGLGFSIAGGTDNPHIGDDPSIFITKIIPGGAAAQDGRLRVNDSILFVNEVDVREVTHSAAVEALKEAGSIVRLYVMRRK
Inadl_3, Q8NI35, sequence (Q8NI35 359-469): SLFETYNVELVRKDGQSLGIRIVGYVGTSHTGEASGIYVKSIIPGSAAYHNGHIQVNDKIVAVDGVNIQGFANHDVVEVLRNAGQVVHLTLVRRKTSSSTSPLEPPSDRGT
Inadl_8, Q8NI35, sequence (Q8NI35 1425-1530): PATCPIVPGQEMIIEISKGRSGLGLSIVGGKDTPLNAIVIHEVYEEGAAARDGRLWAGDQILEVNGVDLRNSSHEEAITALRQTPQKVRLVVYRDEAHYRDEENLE
MAGI2_5, Q86UL8, sequence (Q86UL8 915-1017): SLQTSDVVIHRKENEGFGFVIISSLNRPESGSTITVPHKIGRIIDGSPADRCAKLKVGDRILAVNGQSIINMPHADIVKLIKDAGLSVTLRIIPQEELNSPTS
MAST1, Q9Y2H9, sequence (Q9Y2H9 962-1065): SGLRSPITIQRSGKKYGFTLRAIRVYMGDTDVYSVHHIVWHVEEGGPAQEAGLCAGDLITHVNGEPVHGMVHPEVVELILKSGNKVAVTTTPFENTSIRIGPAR
TJP2_1, Q9UDY2, sequence (Q9UDY2 24-128): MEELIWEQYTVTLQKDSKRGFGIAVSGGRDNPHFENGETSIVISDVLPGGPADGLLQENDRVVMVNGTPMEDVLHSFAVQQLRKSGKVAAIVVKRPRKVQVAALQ
SCRIB_3, Q14160, sequence (Q14160 999-1103): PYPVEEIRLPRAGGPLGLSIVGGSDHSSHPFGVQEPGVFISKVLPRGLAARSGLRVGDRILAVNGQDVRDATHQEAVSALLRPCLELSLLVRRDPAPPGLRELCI
MAST2, Q6P0Q8, sequence (Q6P0Q8 1099-1202): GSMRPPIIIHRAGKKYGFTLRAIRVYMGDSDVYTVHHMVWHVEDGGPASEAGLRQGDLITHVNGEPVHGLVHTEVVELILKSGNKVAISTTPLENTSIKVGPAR
Inadl_6, Q8NI35, sequence (Q8NI35 1058-1167): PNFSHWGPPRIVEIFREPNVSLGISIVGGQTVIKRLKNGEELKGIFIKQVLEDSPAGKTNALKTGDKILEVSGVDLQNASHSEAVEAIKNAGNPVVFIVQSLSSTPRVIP
MAGI2_4, Q86UL8, sequence (Q86UL8 772-865): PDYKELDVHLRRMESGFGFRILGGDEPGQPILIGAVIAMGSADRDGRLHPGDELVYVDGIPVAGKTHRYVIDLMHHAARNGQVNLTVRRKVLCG
PICK1, Q9NRD5, sequence (Q9NRD5 17-115): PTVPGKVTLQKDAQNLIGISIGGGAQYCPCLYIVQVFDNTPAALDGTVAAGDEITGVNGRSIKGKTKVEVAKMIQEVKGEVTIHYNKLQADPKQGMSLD
FRMPD2_1, Q68DX3, sequence (Q68DX3 770-861): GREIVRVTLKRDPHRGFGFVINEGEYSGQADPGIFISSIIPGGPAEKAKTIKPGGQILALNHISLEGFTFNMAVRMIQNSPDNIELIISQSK
PTPN3, P26045, sequence (P26045 505-587): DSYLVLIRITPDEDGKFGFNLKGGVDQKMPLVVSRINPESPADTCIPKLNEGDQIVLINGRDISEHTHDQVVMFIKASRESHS
HTRA2, O43464, sequence (O43464 355-458): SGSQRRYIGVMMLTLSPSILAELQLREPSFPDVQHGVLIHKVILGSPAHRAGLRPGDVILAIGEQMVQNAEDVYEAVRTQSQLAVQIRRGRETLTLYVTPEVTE

Binder	pKd (DLG3_1, Q92796)	pKd (DLG3_2, Q92796)	pKd (DLG4_1, P78352)	pKd (FRMPD1, Q5SYB0)	pKd (FRMPD2_1, Q68DX3)	pKd (FRMPD2_2, Q68DX3)	pKd (GOPC, Q9HD26)	pKd (GORASP2, Q9H8Y8)	pKd (GRIP1_5, Q9Y3R0)	pKd (HTRA2, O43464)	pKd (Inadl_3, Q8NI35)	pKd (Inadl_6, Q8NI35)	pKd (Inadl_8, Q8NI35)	pKd (LNX2_2, Q8N448)	pKd (MAGI2_4, Q86UL8)	pKd (MAGI2_5, Q86UL8)	pKd (MAST1, Q9Y2H9)	pKd (MAST2, Q6P0Q8)	pKd (MPDZ_12, O75970)	pKd (PARD3B_1, Q8TEW8)	other results
HLRQQGSVEV [EPHB6, O15197]	below the threshold	below the threshold	3.5	below the threshold	4.14	below the threshold	below the threshold	below the threshold	below the threshold	below the threshold	below the threshold	below the threshold	below the threshold	5.03	below the threshold	below the threshold	below the threshold	4.01	below the threshold	3.69	pKd (PICK1, Q9NRD5): below the threshold; pKd (PTPN3, P26045): below the threshold; pKd (RAPGEF6, Q8TEU7): below the threshold; pKd (SCRIB_3, Q14160): below the threshold; pKd (SNTB1, Q13884): below the threshold; pKd (TJP2_1, Q9UDY2): below the threshold; pKd (TX1BP3, O14907): 3.85
TGLWKSETTV [ADGRA2, Q96PE1]	4.43	5.07	4.94	below the threshold	below the threshold	3.51	3.78	3.9	below the threshold	below the threshold	3.97	below the threshold	3.65	4.98	4.88	4.12	4.68	5.23	below the threshold	below the threshold	pKd (PICK1, Q9NRD5): below the threshold; pKd (PTPN3, P26045): 4.54; pKd (RAPGEF6, Q8TEU7): below the threshold; pKd (SCRIB_3, Q14160): 4.4; pKd (SNTB1, Q13884): 4.55; pKd (TJP2_1, Q9UDY2): below the threshold; pKd (TX1BP3, O14907): 4.87

Second part, led by results:

pKd (DLG3_1, Q92796)	pKd (DLG3_2, Q92796)	pKd (DLG4_1, P78352)	pKd (FRMPD1, Q5SYB0)	pKd (FRMPD2_1, Q68DX3)	pKd (FRMPD2_2, Q68DX3)	pKd (GOPC, Q9HD26)	pKd (GORASP2, Q9H8Y8)	pKd (GRIP1_5, Q9Y3R0)	pKd (HTRA2, O43464)	pKd (Inadl_3, Q8NI35)	pKd (Inadl_6, Q8NI35)	pKd (Inadl_8, Q8NI35)	pKd (LNX2_2, Q8N448)	pKd (MAGI2_4, Q86UL8)	pKd (MAGI2_5, Q86UL8)	pKd (MAST1, Q9Y2H9)	pKd (MAST2, Q6P0Q8)	pKd (MPDZ_12, O75970)	pKd (PARD3B_1, Q8TEW8)	Binder	other results
below the threshold	3.47	3.84	below the threshold	below the threshold	3.97	3.57	below the threshold	below the threshold	below the threshold	below the threshold	below the threshold	3.81	4.05	3.5	3.48	4.76	5.61	below the threshold	below the threshold	NLQEHSTTSV [RSBN1, Q5VWQ0]	pKd (PICK1, Q9NRD5): below the threshold; pKd (PTPN3, P26045): 4.49; pKd (RAPGEF6, Q8TEU7): below the threshold; pKd (SCRIB_3, Q14160): 3.63; pKd (SNTB1, Q13884): 3.99; pKd (TJP2_1, Q9UDY2): below the threshold; pKd (TX1BP3, O14907): 3.97
below the threshold	4.19	below the threshold	below the threshold	below the threshold	below the threshold	below the threshold	below the threshold	below the threshold	below the threshold	below the threshold	below the threshold	below the threshold	below the threshold	below the threshold	below the threshold	4.53	5.6	below the threshold	below the threshold	FTLPAESSEI [PLEKHG7, Q6ZR37]	pKd (PICK1, Q9NRD5): 3.99; pKd (PTPN3, P26045): 3.55; pKd (RAPGEF6, Q8TEU7): below the threshold; pKd (SCRIB_3, Q14160): 3.86; pKd (SNTB1, Q13884): below the threshold; pKd (TJP2_1, Q9UDY2): below the threshold; pKd (TX1BP3, O14907): below the threshold
